Laboratory results published in the supplement of paper PMC9170038.

Tested on: MS2 coat protein
Assay: apparent KD of MS2 coat protein; designed switch direction (-1 OFF switch, 1 ON switch): -1; higher = weaker reporter binding
Outline: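 Designed RNA switches sharing common flanks were transcribed on Illumina chips by stalled E. coli RNA polymerase. They were titrated with SNAP-549-labelled MS2 coat protein, from 0.7 or 1.5 nM doubling to 3 µM, in Tris-HCl pH 7.5 buffer with KCl, MgCl2, BSA, DTT, tRNA and Tween-20. Titrations ran without input, with 200 uM small-molecule ligand, or with an oligonucleotide input. The apparent KD of each design is the median over its clusters, after curve-fitting of normalised cluster fluorescence.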

[1] = Eterna round: R95, input ligand: FMN 200 uM
[2] = Eterna round: R95, input ligand: microRNA oligo, concentration not stated
[3] = Eterna round: R95, input ligand: none
[4] = input ligand: microRNA oligo, concentration not stated

Sequence	apparent KD of MS2 coat protein (input ligand: FMN 200 uM) [µM]	apparent KD of MS2 coat protein (input ligand: none) [µM]	apparent KD of MS2 coat protein [1] [µM]	apparent KD of MS2 coat protein [2] [µM]	apparent KD of MS2 coat protein [3] [µM]	apparent KD of MS2 coat protein [4] [µM]
GAAAACGCAGAGGAUAUUUCAGAUCAAAGCUGCAAAGAAGGCUGCACAUGAGGAUCACCCAUGUGGUCUUCAAG [Mat - Exclusion 6 - JL Mod - D9] (Eterna round: R97, puzzle: Exclusion 6)	0.152	0.029				
GAAAACGCUGAGGAUAUUUCUGAUCAAAGCAGCAAAGAAGGCAGCACAUGAGGAUCACCCAUGUGGUCUUCAAU [Mat - Exclusion 6 - JL Mod - D11] (Eterna round: R97, puzzle: Exclusion 6)	0.445	0.033				
GAAAAGAGAGGAUAUACUUGAGGAUCACCCAAGUAGGCGGUAACCGCCACGGGCCAGAGUAGAAGGCUCAAAAC [Beceanlave] (Eterna round: R97, puzzle: Exclusion 3)	0.141	0.0322				
GAAAAGCGAGGAUAUACAUGAGGAUCACCCAUGUAGCAAAAGCGUGCGGCGGUCGGAGGUAGAAGGCGCACAAC [Zamara] (puzzle: Exclusion 3)			0.0812	0.0518	0.1	
GAAAAGGCAGGAUAUGCAAUGUUUGUCCCAUCUCUCCUAAGACAUGAGGAUCACCCAUGUAGAAGGGCCAGGAA [Eternabot (L2) Solution 62] (Eterna round: R97, puzzle: Exclusion 2)	0.0337	0.0265				
GAAAAGGUAGGAUAUACGAAAAAAAAGGGUAGAAAAAAAGCACAUGAGGAUCACCCAUGUAGAAGGACCAAAAG [salish99_ex2_r3_018] (Eterna round: R96, puzzle: Exclusion 2)						0.0296
GAAAAGGUAGGAUAUACGAAAAAAAAGGGUAGAAAAAAAGCACAUGAGGAUCACCCAUGUAGAAGGACCAAAAG [salish99_ex2_r3_018] (puzzle: Exclusion 2)			0.137	0.0325	0.0335	
GAAAAGGUAGGAUAUACGAAAAAAAAGGGUAGAAAAAGAACACAUGAGGAUCACCCAUGUAGAAGGACCAAAAG [salish99_ex2_r3_020] (puzzle: Exclusion 2)			0.0728	0.0209	0.0203	
GAAAAGGUAGGAUAUACGAAAAAAAAGGGUAGAAAAUAAACACAUGAGGAUCACCCAUGUAGAAGGACCAAAAG [salish99_ex2_r3_075] (puzzle: Exclusion 2)			0.092	0.0253	0.0257	
GAAAAGGUAGGAUAUACGAUAAGAAAGGGUAGAGAAGAAACACAUGAGGAUCACCCAUGUAGAAGGACCAAAAG [salish99_ex2_r3_100] (puzzle: Exclusion 2)			0.146	0.0236	0.0332	
GAAAAGGUAGGAUAUACGAUAAGAAAGGGUAGAGAAUAAACACAUGAGGAUCACCCAUGUAGAAGGACCAAAAG [salish99_ex2_r3_101] (puzzle: Exclusion 2)			0.148	0.03	0.026	
GAAAAGUAAGGAUAUGUCUCCAGUGAGGAAACUCACUGGAGACAGAAGGUACAUGAGGAUCACCCAUGUUCCUC [ExDelusion 5 - Jieux - Exclusion 4] (Eterna round: R97, puzzle: Exclusion 4)	0.289	0.0427				
GAAAAGUAAGGAUAUUCACACAGUGAGGAAACUCACUGUGUGGAGAAGGUACAUGAGGAUCACCCAUGUUUCUC [ExDelusion 1 - Jieux - Exclusion 4] (Eterna round: R97, puzzle: Exclusion 4)	0.229	0.0303				
GAAAAGUGAGGAUAUGGUAAUGUAAGUAUGUAGUAUGUAAUCCAGAAGGCACAUGAGGAUCACCCAUGUAAAAG [Mat - Exclusion 4 - D102] (puzzle: Exclusion 4)				0.0244		
GAAAAUGUAGAGGAUAUUUCAGAUCAAGACUGCAAAGAAGGCUGCACAUGAGGAUCACCCAUGUGGUCAACAAA [Mod of Quesina 15 - Jieux - Exclusion 6] (Eterna round: R97, puzzle: Exclusion 6)	0.0791	0.0223				
GAAAGGGCAGGAUAUGCAGAGAGAGAGAGAGAGAGAAAAAAACAUGAGGAUCACCCAUGUAGAAGGGCCGAAAG [salish99-ex2-06] (Eterna round: R96, puzzle: Exclusion 2)	0.031	0.0342				0.0278
GAACCGCGAGGAUAUACAGUCGAGUCCAUUACGUGUCUCGGACUUGAGGAUCACCCAAGUAGAAGGCGUCUCAG [salish99_ex2_r4_634] (Eterna round: R97, puzzle: Exclusion 2)	0.0963	0.188				

Sequence	apparent KD of MS2 coat protein (input ligand: FMN 200 uM) [µM]	apparent KD of MS2 coat protein (input ligand: none) [µM]	apparent KD of MS2 coat protein [1] [µM]	apparent KD of MS2 coat protein [2] [µM]	apparent KD of MS2 coat protein [3] [µM]	apparent KD of MS2 coat protein [4] [µM]
GAACUGAAGCAUAGCUUUAGUCGUACAUGAGGAUCACCCAUGUAGGAUAUGGUAGGCAUAGCUUACUAGAAGGAUAGAGUGAUC [Mat - Exclusion NG 3 - Mod of JL - D73] (Eterna round: R96, puzzle: Exclusion NG 3)	0.595	0.243				0.411
GAACUGAGGCAAAGCUUUAGUCGUACAUGAGGAUCACCCAUGUAGGAUAUGGUAGGCAAAGCUUACCAGAAGGACAGAGUGAUC [Mat - Exclusion NG 3 - Mod of JL - D60] (Eterna round: R96, puzzle: Exclusion NG 3)	0.498	0.257				0.26
GAAGAAGAGAGAAUAGAAAACAUGAGGAUCACCCAUGUGAGAAGAUGAGGGUGUAAUAGGCUUUUGGCUCGUCUUAU (puzzle: Sensor v3, turn-off variant 1)			0.0379	0.0897	0.0472	
GAAGAGACAGGAUAUACAUGAGGAUCACCCAUGUGAGUAAGGUAGAGGCGGAGUAGAUGUAGAAGGGUCAAAGA [JR_Exclu3_Sub015] (puzzle: Exclusion 3)			0.0805	0.0405	0.0428	
GAAGAGGUAGGAUAUACGAAAAAAAAGGGUAGAAAAAAAACACAUGAGGAUCACCCAUGUAGAAGGACCAAAAG [salish99_ex2_r3_034] (puzzle: Exclusion 2)			0.102	0.036	0.0231	
GAAGCACAUGAGGAUCACCCAUGUAAGGAUAUACGUCUGGUCCGGCCGGACCAGUACCGUAGAAGGUACGUAAA [Excls-Ia] (puzzle: Exclusion 1)				0.0181		
GAAGUAAAUGCAGGAUAUACCCACACAUGAGGAUCACCCAUGUAGUCUACUACGGUGUUCUCACGGUAGAAGGGCACAGCCGGA [Eternabot solution 31] (Eterna round: R96, puzzle: Exclusion NG 2)	0.377	0.256				0.267
GAAUAACAAGCGAGAUCCUACAUGAGGAUCACCCAUGUGCUCGUCUUAUAAAGUACUAUCACGAAAGUGAUAGUACA [Mat - Sensor v3 - turn-off var 1 - Eli Mod - D62] (puzzle: Sensor v3, turn-off variant 1)			0.0162	0.2	0.0175	
GAAUAGGCAGGAUAUACAUGAGGAUCACCCAUGUGCCGGCGAUAGGUACGAUCGAAAGGUAGAAGGGCCUAAAC [ChP 13.04.2015 #8] (puzzle: Exclusion 3)			0.0307	0.14	0.127	
GAAUAGUGAGGAUAUGCAAUGAAGGUAGUACGAUAUGUCUGACAUGAGGAUCACCCAUGUAGAAGGCACAGAUC [EX2 #12] (Eterna round: R97, puzzle: Exclusion 2)	0.0161	0.022				
GAAUGAGAGCAGGAUAUCUUAUAAAUAUAUGAAAGAGAAGGGCUCACAUGAGGAUCACCCAUGUGGUCCUAGAU [jl-ex6-4.75 jandersonlee mod] (Eterna round: R97, puzzle: Exclusion 6)	0.443	0.0429				
GACACGGAUGUCAGGAUAUGCAAAUGGCAUCGUUCGCAGAAGGGACAUGAGGAUCACCCAUGUAAAAGUGGACC [Onsorelama] (Eterna round: R97, puzzle: Brourd's mod of Exclusion 4)	0.109	0.114				
GACCCUGCCUAGGAUAUGCAUCUGUCAGUCAGGGCAGAAGGAGGCACAUGAGGAUCACCCAUGUGACCCGGCGU [EX6 C.3] (Eterna round: R97, puzzle: Exclusion 6)	0.0146	0.0145				
GACCUAUAGGUAGGAUAUCAUUGCGAUUAGCUAUGAGAAGGACCACAUGAGGAUCACCCAUGUCCUCCAAUUAACCGAAAGGUC [Fiskers ExNg1 - 3] (Eterna round: R96, puzzle: Exclusion NG 1)	0.0449	0.0301				0.0219
GACUGCCGAGGAUAUACAUGAGGAUCACCCAUGUGCUUCAGCAUCGAAAGAUGCAUGGGUAGAAGGCGGUAGUC [LRO-Excl3-11] (puzzle: Exclusion 3)				0.0254		
GACUGGACAGGAUAUGUUCUUGAGCACUUGAGGAUCACCCAAGUCAUCAAGAACUCAGGCACAGAAGGGUUUAUGG [salish99_ex5_r4_010] (Eterna round: R97, puzzle: Exclusion 5)	0.0233	0.0121				
GACUGGGCAGGAUAUACAUGAGGAUCACCCAUGUGUCUGCGUCAGGCACGUGUAGACGGUAGAAGGGCCUACAC [ChP 13.04.2015 #16] (puzzle: Exclusion 3)				0.0119		
